This is an account of results in US20220204602A1 (published 2022).

A word on the EC50: it is the midpoint of the concentration-response curve.

Experiment [1] has as its target T1, Cyno FcRn (Cynomolgus, UniProt Q8SPV9 24-297; Q8SPW0 21-119).
T1 chain 1: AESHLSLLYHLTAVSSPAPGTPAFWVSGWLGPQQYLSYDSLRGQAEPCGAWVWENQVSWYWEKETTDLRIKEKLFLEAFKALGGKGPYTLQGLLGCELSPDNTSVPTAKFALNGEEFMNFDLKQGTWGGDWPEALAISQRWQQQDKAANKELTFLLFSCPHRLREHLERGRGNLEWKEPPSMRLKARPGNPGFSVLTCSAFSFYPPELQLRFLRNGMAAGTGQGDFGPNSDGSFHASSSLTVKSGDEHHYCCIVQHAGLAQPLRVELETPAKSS
T1 chain 2: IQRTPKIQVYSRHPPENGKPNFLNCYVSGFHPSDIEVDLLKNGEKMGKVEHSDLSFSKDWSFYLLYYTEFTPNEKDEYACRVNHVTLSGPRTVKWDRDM
Briefly: SPR (Biacore); pH 6.0.

For experiment [2], the target named is T2, human complement C5 (human, UniProt P01031 19-673; P01031 678-1676). The experiment in a line: competition ELISA; pH 7.4. Background: In an ELISA, binding on a coated surface is turned into a signal by an enzyme label.
The target in experiment [3] is T2, human complement C5. The experiment in a line: competition ELISA; pH 6.0.

Values joined by “and” are separate entries in the source; they are usually repeats but may differ in a detail not shown here. Equal values may be shown once.

B1: anti-C5 mAb FMEH-IgG4PLA (antibody)
heavy: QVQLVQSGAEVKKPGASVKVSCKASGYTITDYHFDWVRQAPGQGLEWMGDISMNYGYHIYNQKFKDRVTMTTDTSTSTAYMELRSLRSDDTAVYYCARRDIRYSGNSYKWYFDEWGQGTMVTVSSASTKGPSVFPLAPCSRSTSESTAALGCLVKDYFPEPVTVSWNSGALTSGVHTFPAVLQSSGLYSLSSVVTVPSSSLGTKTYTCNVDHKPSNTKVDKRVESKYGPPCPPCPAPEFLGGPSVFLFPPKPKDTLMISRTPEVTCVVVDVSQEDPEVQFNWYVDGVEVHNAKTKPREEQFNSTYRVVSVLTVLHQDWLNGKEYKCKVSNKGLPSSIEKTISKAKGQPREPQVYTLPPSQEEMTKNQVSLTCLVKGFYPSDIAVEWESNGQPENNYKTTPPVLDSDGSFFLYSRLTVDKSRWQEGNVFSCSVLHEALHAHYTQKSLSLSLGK
light: DIQLTQSPSFLSASVGDRVTITCRTSKSISKHLAWYQQKPGKAPKLLIYSGSTLQSGVPSRFSGSGSGTEFTLTISSLQPEDFATYYCQQHNEYPYTFGQGTKLEIK
B1 had a Ka in experiment [1] of 7.13e+07 M⁻¹.

B2: parental mAb H1-8/L1-9 ScFV (scFv)
chain: MDWTWVFLFLLSVTAGVHSQVQLVQSGAEVKKPGASVKVSCKASGYTITDYHLDWVRQAPGQGLEWMGDISPNYGYTIYNQKFKDRVTMTTDTSTSTAYMELRSLRSDDTAVYYCARRDIRYSGNSYKWYFDVWGQGTMVTVSSMEAPAQLLFLLLLWLPDTTGDIQLTQSPSFLSASVGDRVTITCRTSKSISKHLAWYQQKPGKAPKLLIYSGSTLQSGVPSRFSGSGSGTEFTLTISSLQPEDFATYYCQQHNEYPYTFGQGTKLEIK
On to B2, for which the EC50 in experiment [2] was 2.08 µg/mL and 1.62 µg/mL and 2.33 µg/mL.

B3: scFV mutant clone 14C6 from mAb 1819 affinity maturation (T to H mutation in position 9 of VH CDR2) (scFv)
chain: MDWTWVFLFLLSVTAGVHSQVQLVQSGAEVKKPGASVKVSCKASGYTITDYHLDWVRQAPGQGLEWMGDISPNYGYTIYNQKFKDRVTMTTDTSTSTAYMELRSLRSDDTAVYYCARRDIRYSGNSYKWYFDVWGQGTMVTVSSMEAPAQLLFLLLLWLPDTTGDIQLTQSPSFLSASVGDRVTITCRTSKSISKHLAWYQQKPGKAPKLLIYSGSTLQSGVPSRFSGSGSGTEFTLTISSLQPEDFATYYCQQHNEYPYTFGQGTKLEIK
With B3, the EC50 stood at 0.404 µg/mL in experiment [2] and 4.97 µg/mL in experiment [3].
